Source: patent US20030108992A1
Blank lines part the entries; values can stand above or below the substance they belong to.

What was measured:
[1] = molecular target: p60 TNFR (endogenous) (UniProt P19438); assay: cell-based or functional assay
[2] = molecular target: p60ΔCD-HA R77A (UniProt P19438); assay: flow cytometry of transfected cells; % MAB225 positive / % HA positive
[3] = molecular target: p60 55-211 (UniProt P19438); assay: as above
[4] = molecular target: p60ΔCD-HA L112E (UniProt P19438); assay: as above
[5] = molecular target: p60ΔCD-HA KY19/20AA (UniProt P19438); assay: as above
[6] = molecular target: p60ΔCD-HA K32A (UniProt P19438); assay: as above
[7] = molecular target: p60ΔCD-HA K19E (UniProt P19438); assay: as above
[8] = molecular target: p60ΔCD-HA (UniProt P19438); assay: as above
[9] = molecular target: p60ΔCD-HA Q24A (UniProt P19438); assay: as above
[10] = molecular target: p60ΔCD-HA DT49/50AA (UniProt P19438); assay: as above
[11] = molecular target: p60ΔCD-HA W108T (UniProt P19438); assay: as above
[12] = molecular target: p60ΔCD-HA E57A (UniProt P19438); assay: as above
[13] = molecular target: p60ΔCD-HA T61A (UniProt P19438); assay: as above
[14] = molecular target: p60ΔCD-HA N66F (UniProt P19438); assay: as above
[15] = molecular target: Fas 1-210:YFP (human) (UniProt P25445); assay: CFP dequenching after YFP photobleaching, fluorescence microscope
[16] = molecular target: p60ΔCD-HA R77A (UniProt P19438); assay: flow cytometry of transfected cells; normalized against HA staining
[17] = molecular target: p60 55-211 (UniProt P19438); assay: as above
[18] = molecular target: p60ΔCD-HA L112E (UniProt P19438); assay: as above
[19] = molecular target: p60ΔCD-HA KY19/20AA (UniProt P19438); assay: as above
[20] = molecular target: p60ΔCD-HA K32A (UniProt P19438); assay: as above
[21] = molecular target: p60ΔCD-HA K19E (UniProt P19438); assay: as above
[22] = molecular target: p60ΔCD-HA (UniProt P19438); assay: as above
[23] = molecular target: p60ΔCD-HA Q24A (UniProt P19438); assay: as above
[24] = molecular target: p60ΔCD-HA DT49/50AA (UniProt P19438); assay: as above
[25] = molecular target: p60ΔCD-HA W108T (UniProt P19438); assay: as above
[26] = molecular target: p60ΔCD-HA E57A (UniProt P19438); assay: as above
[27] = molecular target: p60ΔCD-HA T61A (UniProt P19438); assay: as above
[28] = molecular target: p60ΔCD-HA N66F (UniProt P19438); assay: as above

Substance: p60ΔCD-HA KY19/20AA (from UniProt P19438 30-240) (receptor)
- DOMINANT … (protection against TNF-induced death) [1]: < 5 % protection

Substance: p60 55-211 (from UniProt P19438 55-211) (receptor)
- DOMINANT … (protection against TNF-induced death) [1]: < 5 % protection

Substance: p60ΔCD-HA R77A (from UniProt P19438 30-240) (receptor)
- DOMINANT … (protection against TNF-induced death) (% of p60ΔCD wild type) [1]: 50

Substance: p60ΔCD-HA K32A (from UniProt P19438 30-240) (receptor)
- DOMINANT … (protection against TNF-induced death) [1]: < 5 % protection

- MAB225 staining normalized to HA staining (ratio, p60ΔCD set at 1) [2]: 1.06
- MAB225 staining normalized to HA staining (ratio, p60ΔCD set at 1) [3]: 0.87
- MAB225 staining normalized to HA staining (ratio, p60ΔCD set at 1) [4]: 1.31
- MAB225 staining normalized to HA staining (ratio, p60ΔCD set at 1) [5]: 0.59
- MAB225 staining normalized to HA staining (ratio, p60ΔCD set at 1) [6]: 0.36
- MAB225 staining normalized to HA staining (ratio, p60ΔCD set at 1) [7]: 1.05
- MAB225 staining normalized to HA staining (ratio, p60ΔCD set at 1) [8]: 1
- MAB225 staining normalized to HA staining (ratio, p60ΔCD set at 1) [9]: 1.06
- MAB225 staining normalized to HA staining (ratio, p60ΔCD set at 1) [10]: 1.16
- MAB225 staining normalized to HA staining (ratio, p60ΔCD set at 1) [11]: 1.32
- MAB225 staining normalized to HA staining (ratio, p60ΔCD set at 1) [12]: 1.68
- MAB225 staining normalized to HA staining (ratio, p60ΔCD set at 1) [13]: 1.42
- MAB225 staining normalized to HA staining (ratio, p60ΔCD set at 1) [14]: 0.67
Substance: p60-specific monoclonal antibody clone MAB225 (R&D Systems)

- FRET efficiency [15]: 16%
Substance: Fas 1-210:CFP (from UniProt P25445 17-226) (receptor)

Substance: p60ΔCD-HA K19E (from UniProt P19438 30-240) (receptor)
- DOMINANT … (protection against TNF-induced death) (% of p60ΔCD wild type) [1]: 50

Substance: p60ΔCD-HA W108T (from UniProt P19438 30-240) (receptor)
- DOMINANT … (protection against TNF-induced death) (% of p60ΔCD wild type) [1]: 50

Substance: p60ΔCD-HA T61A (from UniProt P19438 30-240) (receptor)
- DOMINANT … (protection against TNF-induced death) (% of p60ΔCD wild type) [1]: 50

- clone 4.12 staining normalized to HA staining (ratio, p60ΔCD set at 1) [16]: 0.99
- clone 4.12 staining normalized to HA staining (ratio, p60ΔCD set at 1) [17]: 0.02
- clone 4.12 staining normalized to HA staining (ratio, p60ΔCD set at 1) [18]: 1.27
- clone 4.12 staining normalized to HA staining (ratio, p60ΔCD set at 1) [19]: 0.14
- clone 4.12 staining normalized to HA staining (ratio, p60ΔCD set at 1) [20]: 0.01
- clone 4.12 staining normalized to HA staining (ratio, p60ΔCD set at 1) [21]: 1.07
- clone 4.12 staining normalized to HA staining (ratio, p60ΔCD set at 1) [22]: 1
- clone 4.12 staining normalized to HA staining (ratio, p60ΔCD set at 1) [23]: 0.97
- clone 4.12 staining normalized to HA staining (ratio, p60ΔCD set at 1) [24]: 0.96
- clone 4.12 staining normalized to HA staining (ratio, p60ΔCD set at 1) [25]: 1.11
- clone 4.12 staining normalized to HA staining (ratio, p60ΔCD set at 1) [26]: 0.04
- clone 4.12 staining normalized to HA staining (ratio, p60ΔCD set at 1) [27]: 1.28
- clone 4.12 staining normalized to HA staining (ratio, p60ΔCD set at 1) [28]: 0.04
Substance: p60-specific monoclonal antibody clone 4.12 (Zymed)

Substance: p60ΔCD-HA L112E (from UniProt P19438 30-240) (receptor)
- DOMINANT … (protection against TNF-induced death) (% of p60ΔCD wild type) [1]: 50

Substance: p60ΔCD-HA (from UniProt P19438 30-240) (receptor)
- DOMINANT … (protection against TNF-induced death) (% of p60ΔCD wild type) [1]: 50

Substance: p60ΔCD-HA E57A (from UniProt P19438 30-240) (receptor)
- DOMINANT … (protection against TNF-induced death) (% of p60ΔCD wild type) [1]: 50

Substance: p60ΔCD-HA Q24A (from UniProt P19438 30-240) (receptor)
- DOMINANT … (protection against TNF-induced death) (% of p60ΔCD wild type) [1]: 50

Substance: p60ΔCD-HA N66F (from UniProt P19438 30-240) (receptor)
- DOMINANT … (protection against TNF-induced death) (% of p60ΔCD wild type) [1]: 50

Substance: p60ΔCD-HA DT49/50AA (from UniProt P19438 30-240) (receptor)
- DOMINANT … (protection against TNF-induced death) (% of p60ΔCD wild type) [1]: 50
